Test results taken from US12497461B2, “Human NTCP-binding antibody capable of inhibiting infection of hepatitis B virus (HBV) to human hepatocytes” (priority 2019, dated 2025).

Experiments:
[1] = target: T1, epitope region-containing peptide fragment (AFPPEVIGPLFFFPLLYMIFQLGEG-biotin) (Homo sapiens, UniProt Q14973); assay: Surface plasmon resonance assay (BIAcore) of antigen binding affinity
T1 sequence (Q14973 273-297 limits assumed): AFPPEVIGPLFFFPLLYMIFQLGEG
Experimental: In short, a carboxymethylated dextran biosensor chip (CM5, BIAcore Inc.) was activated by N-ethyl-N′-(3-dimethylaminopropyl)-carbodiimide hydrochloride (EDC) and N-hydroxysuccinimide (NHS) in accordance with the provider's instruction. An anti-mouse IgG antibody was diluted with 10 mM sodium acetate (pH5.2) up to 30 μg/ml. The dilution was injected at a flow rate of 5 to 10 μl/minute such that the reaction unit (RU) of the protein bound became 9,000 to 14,000 RU. In contrast, an anti-human IgG antibody was diluted with 10 mM sodium acetate (pH5.0) up to 25 μg/ml. The diluted antibody was injected at a flow rate of 5 to 10 μl/minute such that the reaction unit (RU) of the protein bound became 9,000 to 14,000 RU. After injection of each of the anti IgG antibodies, 1 M ethanolamine was injected in order to block unreactive groups. For kinetic measurement, N6HB426 antibody diluted with a running buffer (HBS-P: 10 mM HEPES pH7.5, 150 mM NaCl, 0.005% NP40) up to 10 μg/ml was immobilized onto CM5 chip via the anti-mouse IgG antibody, in advance. To the chip, a solution of an epitope region-containing peptide fragment ([…]-biotin: SEQ ID NO: 24) diluted with the running buffers at different concentrations was added at 25° C. at a flow rate of 10 μl/minute for 2 minutes. In contrast, the recombinant N6HB426 human chimeric IgG4 antibody was diluted with the running buffer up to 10 μg/ml and then was immobilized onto a sensor chip (CM5) via the anti-human IgG antibody in advance. To the chip, a solution of an epitope region-containing peptide fragment diluted with the running buffers at different concentrations was added at 25° C. at a flow rate of 10 μl/minute for 2 minutes.
The refractive index of the solution varied in correlation to the mass of a chip surface changed when a peptide fragment molecule bound to N6HB426 antibody on the sensor chip, was monitored in real-time. Using simple one-to-one Langmuir binding model (BIAcore Evaluation software version 3.1) by fitting sensor grams of antigen-antibody association and dissociation at the same time, association rate (Ka) and dissociation rate (Kd) were calculated. A Kd/Ka ratio was calculated to obtain an equilibrium dissociation constant (KD).

[2] = tested on: HBV (Genotype C or Genotype D); assay: Live HBV infection of normal human hepatocytes (PXB cells), HBs antigen; conditions: FIG. 2B, listed as N6HB426-20 antibody gene-derived recombinant antibody
[3] = 25° C., antibody immobilized on CM5 chip

B1: Recombinant mouse IgG2a antibody: N6HB426 variable regions connected to a constant region of mouse IgG2a antibody (antibody)
heavy: QVQLQQSGAELVKPGASVKLSCKASDFTFTEYTIHWIKQMSGQGLEWIGWFYPGSGDIKYSEKFKDKATLTADKSSSTVYMELNRLTSEDSAVYFCARHMRDFRGFYYGRFYFDYWGQGTTLTVSSAKTTAPSVYPLAPVCGGTTGSSVTLGCLVKGYFPEPVTLTWNSGSLSSGVHTFPALLQSGLYTLSSSVTVTSNTWPSQTITCNVAHPASSTKVDKKIEPRGPTIKPCPPCKCPAPNLLGGPSVFIFPPKIKDVLMISLSPIVTCVVVDVSEDDPDVQISWFVNNVEVHTAQTQTHREDYNSTLRVVSALPIQHQDWMSGKEFKCKVNNKDLPAPIERTISKPKGSVRAPQVYVLPPPEEEMTKKQVTLTCMVTDFMPEDIYVEWTNNGKTELNYKNTEPVLDSDGSYFMYSKLRVEKKNWVERNSYSCSVVHEGLHNHHTTKSFSRTPGK
light: EIVLTQSPAIMSASPGEKVTITCRASSSVSSSYLHWYQQKSGVSPKLWIYSTSNLASGVPARFSGSGSGTSYSLTINSVEAEDAATYYCQQYSGYRWTFGGGTTLEIKRADAAPTVSIFPPSSEQLTSGGASVVCFLNNFYPKDINVKWKIDGSERQNGVLNSWTDQDSKDSTYSMSSTLTLTKDEYERHNSYTCEATHKTSTSPIVKSFNRNEC
Kd [1]: ~0.1 nM
Ka (1/Ms) association rate [1, 3]: 761.7 M⁻¹ s⁻¹
Kd (1/s) dissociation rate [1, 3]: 2.39e-07 s⁻¹
inhibitory activity on infection of normal human hepatocytes with HBV [2]: comparable activity
